The values that follow come from patent publication US20210369812A1, “OSTEOINDUCTIVE PEPTIDES, COMPOSITIONS, IMPLANTS, AND METHODS OF USE” (The Board of Regents of the University of Oklahoma, priority 2018, published 2021).

For one assay, the target named is T1, BMPR2 (Homo sapiens, UniProt Q13873).
T1 construct: purchased G&P Biosciences
T1 sequence (Q13873 27-150 limits assumed): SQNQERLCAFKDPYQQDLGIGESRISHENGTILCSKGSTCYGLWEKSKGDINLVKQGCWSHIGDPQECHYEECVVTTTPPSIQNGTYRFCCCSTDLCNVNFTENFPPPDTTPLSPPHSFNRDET
The experiment in a line: Enzyme-linked immune sorbent assay for receptor binding (BMPR2). To be noted: peptide on p3 of M13 phage; absorbance 450 nm; n=4; vs wild type phage. The source says:
Groups having the same lowercase letter assigned (above the bar) were not statistically different from each other. Groups having different letters assigned (above the bar) were statistically different from each other. […] The primary antibody was mouse anti-g3p (p8) IgG. The secondary antibody was anti-mouse IgG conjugated with horseradish peroxidase. The substrate, 3,3′,5,5′-Tetramethylbenzidine was detected at 450 nm after stopping the reaction with 1 M HCl.
Blocking buffer (0.1 M NaHCO3 (pH 8.6), 5 mg/ml BSA. Filter sterilized, stored at 4° C.) was prepared. TBS (50 mM Tris-HCl (pH 7.5), 150 mM NaCl, autoclaved, stored at room temperature) was prepared. Separate solutions of the target receptors were then made. For BMPR1A, a 10 μg/ml stock solution was made. For BMPR2, a 10 μg/ml solution was also made. Separate wells with n=4 for each different peptide bearing phage group were then coated with one of the receptors. […] After a brief pilot test, it should be noted that using 10^10 phage/ml was determined to work best, but other concentrations of virus also worked consistently. […] Then, […] of freshly prepared 3,3′,5,5′-Tetramethylbenzidine (TMB) was added to each well and the absorbance at 370 nm and 652 nm was monitored for 1 hour using an ELISA plate reader. […] The absorbance at 450 nm for each well was then measured.

In assay [1] the test system is rat radial bone defect model. The experiment in a line: Histological staining (HE, Von Kossa) of implanted scaffolds. It is filed as in vivo. To be noted: 4-week implants. From the text:
After 4 weeks and 12 weeks, animals (N=5) were euthanized by CO2 asphyxiation. The sections of the arms containing the implant (at the radius bone) were then cut way from the rest of the animal using bone cutters. The 4-week implant samples were fixed in 10% (w/v) neutral formalin solution for 4 days. The 12-week samples were fixed in 4% paraformaldehyde for 4 days. Paraformaldehyde was used as it can produce better CD31 vascularization stains relative to fixing with formalin. The samples were then placed in a solution of 70% ethanol to 30% water (v/v).
The tissue sections were deparaffinized and hydrated with distilled water. Hematoxylin was applied to the sample with enough volume to cover the tissue section followed by incubation for 5 min. The mounted tissue slide was then rinsed in 2 changes of distilled water (sections were allowed to soak for 15 sec on each exchange of water). Enough Bluing Reagent was then added to the tissue section to completely cover it followed by incubation for 10-15 sec. The slides were then rinsed again in 2 changes of distilled water allowing 15 sec of contact with the water each time. The slides were then dipped in 100% ethanol for 10 sec. The excess ethanol was blotted off. Enough Eosin Y Solution was then added to completely cover the tissue section followed by incubation for 2-3 min. The slides were then rinsed in 100% ethanol for 10 sec. […]

As for “SGTQDSMVGWNK (Completely synthesized in the lab - Ph.D.-12 Phage Display Peptide Library Kit (New England Biolabs))”, the “Relative binding strength in ELISA to BMPR2” value with BMPR2 is “statistically significant binders”. Take “VHVPLHRGAVSA (Completely synthesized in the lab - Ph.D.-12 Phage Display Peptide Library Kit (New England Biolabs))”: in assay [1], the “New bone tissue / calcium deposits (Von Kossa stain)” value is “New bone tissue was observed to be best”.
